The supplement of paper PMC10567573

B1: TRIM14 (parent)
chain: YARTPTLDPDTMHARLRLSADRLT

Variants of: B1
Assay: protein stability index of a GFP-peptide fusion (GPS, HEK-293T) (PSI 1-6); higher = more stable
Conditions: c terminus: a fixed tail appended
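Also: lentivirally expressed fusions sorted by FACS into six bins by GFP to DsRed ratio, PSI derived from sequencing read proportions per bin multiplied by bin number.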

Protein stability index: each site, then its substitutions
P9: G 3.11 | A 2.82 | V 2.41 | C 2.1 | M 3.07 | R 2.96 | I 2.3 | H 2.92 | L 2.1 | T 2.58 | Y 2.22 | Q 2.56 | F 2.21 | W 2.17 | E 2.56 | S 2.04 | N 3.11 | K 3.15 | D 2.98
D21: P 2.06 | R 2.02 | Y 1.6 | C 2.77 | N 2.54 | A 2.43 | H 3.32 | M 1.96 | E 2.53 | W 1.62 | K 2.06 | Q 2.91 | S 3.05 | L 1.8 | T 2.61 | F 2.34 | I 1.23 | G 2.08 | V 1.52
L16: M 2.67 | N 2.57 | E 3.5 | T 3.02 | H 3.27 | F 2.84 | W 2.56 | C 1.93 | K 3.01 | V 2.49 | Y 2.19 | S 3.52 | D 2.77 | R 3.27 | Q 2.93 | I 2.56 | P 2.94
T11: I 2.26 | F 2.04 | W 2.15 | V 2.36 | P 2.79 | Q 2.81 | G 2.39 | C 2.94 | H 2.12 | N 2.45 | M 2.12 | E 3.46 | D 3.07 | L 2.27 | K 3.29 | R 3.65 | A 2.68 | Y 2.9 | S 2.66
A20: F 1.61 | L 2.04 | M 2.35 | I 2.85 | Y 2.18 | Q 1.84 | P 2.6 | V 1.96 | E 3.03 | T 2.5 | H 2.56 | D 2.83 | R 1.49 | N 2.55 | S 3.14 | K 3.38 | C 2.14 | G 2.37 | W 3.31
R17: A 2.89 | H 2.73 | C 2.25 | F 2.02 | L 2.29 | K 2.58 | Q 2.56 | W 1.42 | D 3.18 | I 2.81 | E 3.04 | N 3.2 | M 2.42 | P 2.84 | S 3.01 | T 2.91 | G 3.01 | V 2.31 | Y 2.27
D8: V 2.78 | M 2.22 | E 2.26 | G 2.18 | N 2.58 | I 2.24 | A 2.15 | H 1.87 | T 2.45 | S 2.5 | F 2.5 | L 2.41 | P 2.41 | K 2.95 | Y 1.8 | C 2.1 | Q 2.52 | W 2.08 | R 1.98
H13: T 2.77 | S 3.17 | K 2.15 | N 2.75 | V 2.23 | W 2.51 | R 2.87 | E 2.71 | F 2.63 | L 2.61 | Y 2.3 | C 2.27 | I 2.69 | Q 2.84 | P 3.06 | D 3.77 | A 2.62 | M 2.69
T24: C 2.51 | I 2.84 | F 1.65 | D 3.87 | E 3.02 | R 3.13 | M 2.48 | H 2.39 | Q 2.67 | A 2.82 | L 1.76 | N 2.92 | G 3.09 | K 3.2 | P 2.17
T6: W 2.79 | Y 1.94 | V 2.22
